According to publication PMC3820160:

Target: HA/Flag-tagged Met66 prodomain (human)
Test: co-IP

Chain of HA/Flag-tagged Met66 prodomain (human) (P23560 19-247): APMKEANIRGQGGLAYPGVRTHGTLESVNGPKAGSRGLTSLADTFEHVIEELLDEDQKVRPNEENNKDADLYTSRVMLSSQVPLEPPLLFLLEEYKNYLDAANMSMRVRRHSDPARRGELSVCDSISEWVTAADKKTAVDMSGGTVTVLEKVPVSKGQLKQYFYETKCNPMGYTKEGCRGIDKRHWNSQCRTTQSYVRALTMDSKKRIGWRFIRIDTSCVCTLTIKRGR

“Myc-tagged SorCS2 (from UniProt Q96PQ0 51-1159) (receptor)” was tested, and the percent more co-immunoprecipitated than with the Val66 prodomain was 23%.
